Publication PMC11377762

Target: human wild-type D3R (HASS-FLAG-EGFP-3C protease-D3R in pcDNA4/TO) (human) (UniProt P35462)
Sequence of UniProt P35462 (P35462 whole entry): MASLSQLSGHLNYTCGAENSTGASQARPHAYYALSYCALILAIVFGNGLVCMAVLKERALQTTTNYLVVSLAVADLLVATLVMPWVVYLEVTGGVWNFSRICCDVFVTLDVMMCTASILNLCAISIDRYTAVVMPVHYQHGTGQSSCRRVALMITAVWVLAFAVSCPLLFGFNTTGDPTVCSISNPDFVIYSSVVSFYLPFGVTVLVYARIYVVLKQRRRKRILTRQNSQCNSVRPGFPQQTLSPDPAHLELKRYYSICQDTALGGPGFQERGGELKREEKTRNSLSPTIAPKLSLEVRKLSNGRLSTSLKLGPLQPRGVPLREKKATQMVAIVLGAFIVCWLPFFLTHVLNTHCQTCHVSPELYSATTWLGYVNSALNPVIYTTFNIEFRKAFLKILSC

With “GαOA-RLuc8 (from UniProt P09471 1-354) (natural protein)” the potency of FOB02-04A at D3R in the TRUPATH BRET2 assay in HEK293T cells, GOA against Gi1 was 135 fold.
